Experimental data published in the DeepSol protein solubility set.

Assay: soluble on expression in E. coli; label from the status in PepcDB or PDB records

Soluble on expression in E. coli, soluble:
QPLGGESICSARAPAKYSITFTGKWSQTAFPKQYPLFRPPAQWSSLLGAAHSSDYSMWRKNQYVSNGLRDFAERGEAWALMKEIEAAGEALQSVHEVFSAPAVPSGTGQTSAELEVQRRHSLVSFVVRIVPSPDWFVGVDSLDLCDGDRWREQAALDLYPYDAGTDSGFTFSSPNFATIPQDTVTEITSSSPSHPANSFYYPRLKALPPIARVTLLRLRQSPR, ANAFLEELRPGSLERECKEEQCSFEEAREIFKDAERTKLFWISYSDGDQCASSPCQNGGSCKDQLQSYICFCLPAFEGRNCETHKDDQLICVNENGGCEQYCSDHTGTKRSCRCHEGYSLLADGVSCTPTVEYPCGKIPILEKRNASKPQGR, MKKILLMLSLLFFTTAGFSEVSDTLVTGGYDKQAMSDAIKHARKETDKFIEVMNKKDADTFAVKAPITDHGRTEHFWLTDVTYSNGMFIGVISNDPGIVTNVEYGQEWKIKKEDISDWMYTRGDKIYGGYTIDPLLVTYPKEEADELRAKLVR, MQFSLVIPVYNAGMMWPEVIRSIKSQTIQPECVIIIDSSSTDNTVAYATEAGFEVYHIDKSTFDHGGTRSMALERVNTEFVIYMTQDAILQNDEAFFYLLSAFNNEEVGAVYGRQLPHHDANPLATHARLHSYGEVGYVTSMKDDFPQGFRKAFMSNSFSGYRVSTLRQIGGFPAKLILGEDSYVAARMLSTGVSVGYIPQALARHSHNYSVGEEFKRYFDIGVFHKTQEWMLASLGKVEGEGVKFALGQICYLLKSNYYHYIPFSIASSGAKYLGYKLGKNYHRLNRTLCKKLSMYKSYWNSSVLEHHHHHH, MAQISGNQTGIGSIHPLLHQNTSDFSEQKFSSVFTGDEFFLRDHVVRGKPVLPGVAYLEMAYAAINQAAGSEIGQDVRIRLNHTVWVQPVVVDRHSAQVDISLFPEEDGKITFDIYSTQEDGDDPVIHSQGSAELASAAETPVADLTEMSRRCGKGKMSPDQFYEEGRSRGMFHGPAFQGIKNVNIGNREVLAQLQLPEIVSGTNEQFVLHPSIMDSALQTATICIMQELTDQKLILPFALEELEVIKGCSSSMWAYARLSDSDHSGGVVQKADIDVIDESGTVCVRIKGFSTRVLEHHHHHH, MSLSRILFLTDLHWDHDYLEGTDPDCADPLCCRRGSGLPPASRPGAGYWGEYSKCDLPLRTLESLLSGLGPAGPFDMVYWTGDIPAHDVWHQTRQDQLRALTTVTALVRKFLGPVPVYPAVGNHESTPVNSFPPPFIEGNHSSRWLYEAMAKAWEPWLPAEALRTLRIGGFYALSPYPGLRLISLNMNFCSRENFWLLINSTDPAGQLQWLVGELQAAEDRGDKVHIIGHIPPGHCLKSWSWNYYRIVARYENTLAAQFFGHTHVDEFEVFYDEETLSRPLAVAFLAPSATTYIGLNPGYRVYQIDGNYSGSSHVVLDHETYILNLTQANIPGEGHHHHHH, MNRTDELRTARIESLVTPAELALRYPVTPGVATHVTDSRRRIEKILNGEDKRLLVIIGPCSIHDLTAAMEYATRLQSLRNQYQSRLEIVMRTYFEKPRTVVGWKGLISDPDLNGSYRVNHGLELARKLLLQVNELGVPTATEFLDMVTGQFIADLISWGAIGARTTESQIHREMASALSCPVGFKNGTDGNTRIAVDAIRAARASHMFLSPDKNGQMTIYQTSGNPYGHIIMRGGKKPNYHADDIAAACDTLHEFDLPEHLVVDFSHGNCQKQHRRQLEVCEDICQQIRNGSTAIAGIMAESFLREGTQKIVGSQPLTYGQSITDPCLGWEDTERLVEKLASAVDTRF

Soluble on expression in E. coli, not soluble:
MGSDKIHHHHHHMNPQPSGATVDKGSVNPEQISIKTFGGLGLSYLNSPMTILWESQKARILFCYLLISYDQWLHRDKLIDMLWPGCDPVSGAKNFKTTLSRLRKSFMGPRSINPIMTLGEAIRLDFNIFSLDSSQFKGYAQTGIKMLARGDISGARRYLEAAQDEYSGEFLPEEPFDHHICAERAELERLHESVLTSLQKVYQLEGNNDAVEAISFLKAVHTNS, MGSDKIHHHHHHMYNKFKLMAKIYLGPAGVPHSAKKKNTVEGIRTVKELGLNAMEVEFVQGVRMSKETAEETGQVARELGVRLSVHAPYFINLCSEEKEKIEASKQRILDTADRAELMGADAIAIHIAFYGKMTPEECYQNVKEGLEEVIDKAREMGIRNVKFGVETMAKETAFGTLDEVISISKELKGVIPYIDWAHTFARQGGEIDYGKIIDRLIKELGLTHINSHFESLVYRRGKYVDEHIPIDANAPPFEPLAKELLKRDISITLICESPELERDALKMKEVLERLGYRLE, GPGSMLLERQQLVQALQLSYHCSAACATSTVNSYYPDEEKCRATVQGKMTAPFVLAVGMVPKQREYVDSLRDDLAVAFQHFPYLNGTAKPPDKEEQKGCAKAVASGERGRNGRASSPASIDWAGVRARLLSPKKVPLWYMHTELVFPGDTHDVRIYENAYQSLIVKEGFSYVIGCYASGDGVVPALDYVNARLCGESVQSLAQRIGFDDDVVEALEGLEAEVPTRVYTRVNAFGNNPATSRSSRQDKGHAQQVLKEAGLAYVRSYVTTRADEAVAKVEDGTLLLPVVVKPNSGAGSEFVTLCYTVDDIRVAFSMVEGVRTSQGTDAAQLVVEEYIEGPEYVVNTVSYQGVHVVTDVWESWKYPEPVVTTGLTRSAEEALRAAGIKRQKQRKISILYDRQTLITNLADLPATHSARRIVEYTLKCLDALGLENGCGHSEVRLDTRKAARELRRHEQRRPKTNSPLGKVKDEHLDEGEPILIELNSRMQGDIPRSTDVIGYDQYSLLVYISEAVNVFGAATAASTALPFRVDSSRPQRVGEIPWPPVPRLYRARPSTGLPLATTVLFLATEEECILNGVALRTLTELGTFQRFTRTIFKPNQPGFVTPLRHTVDLFSSPTSCVMQGPAAAVKADCAAIRSMESAALCSAAKAALFKLTSTIHETERLRENARIIDGRLHAMTEAYRRASAQAGSATDEVADDGREKDEQGTENDCCSSQHDLEALRRSISSLQSELTWVTNNLAADDRQVQLLRTEFAKALASQKPAPLYINYQDFSMMKAAGVGNELAVL, MTQLRHFSHGASVFDIDSVEDFTEKVIQSSVPVIVDFHAEWCGPCQALGPRLEEKVNGRQGSVLLAKINVDHAGELAMDYGISAVPTVFAFKNGEKISGFSGVLDDEQLDDFIEDVLAA, MKHILIIGATGQIGSELTMELRRRYGNTNVVAGYIQGAEPKGELKESGPSAVVDVTNGEMIESVVKEYHIDTIYNLAALLSVVAESKPKLAWKIGIDGLWNVLEVAREQGCAVFTPSSIGSFGASTPHTQTPQDTIQRPRTMYGVTKVTTELLSDYYFNKYGVDTRAVRFPGIISNVTPPGGGTTDYAVDIYYSAVRGEKFVCPIKEGTLMDMMYMPDALNAAIMLMEADPTKLIHRNAFNIASMSFDPETIFHAIKKHVPAFEMIYDVDPLKQRIADSWPDSLDDTCAREEWGWKPAYDLESMTVDMLEKLREKLKK, MANVAFGFQEAVFTLESMVANIERQAQTIEKLINENKQLRQENQQLKARIAELEARTKKNSTNSHFPPSSDRFGAKSPSRPPSEKRPGGQPGHQGTTLRQSPNPDHRVLHRVTQCKGCGHSLEHIDPLQVDIRQVFDLPVVRMEVTQHEREIKRCPECRLVQQAEFPFYVTNHVQYGPAVTSLILYWNHAQLIPCERVTEMVKALTGHSMSAGTVVNMTRRWQPVAEAAIEEIEAALLTSSTLHVDETSLRVKGTKQWVHVASTSKETRYGIHRSRGKQATDDIGILPRYKGTMVHDAYAVYPMYTQASHALCHAHHLRELREYTELYHHSWSNKMAEALLEMKQAVEKAGGALPEEKVRYWEAVYDELLSNGRQELDERCRQGNYLGVRKAEHFIRRLEKRKQEALLFLRKKEVPFDNNQAERDLRMVKVKQKISGTFRQEDDAEAFCVIRSVVSTLQKHGKPVWESLQRLLSGESLQTILQSS, MGSDKIHHHHHHMNAGLDGLLLLRAPNLAYATGLFLSANERPMGVWLPMDGDPILMLPGLERENAKGTGLTDLRFYDEFPGKEPPVLWMLDQIGRKHIGIDALDAALLDAARDKAVRIDLTDHAMAARTIKEPEEIALTVEAASFADLFLTRLHAAAGDIINQGGTEADLMADAMAHARGALMAKHKQAFSGTPMGITASVHSGPRAALPHGAVLERVPQPGETLIAGIGASLGGYHAESGVTLIVGSISAEQRQIMAAMKACNDAGVAACGARTTCTQANDAALDALRAAGLGDTIRHRIGHGMGLEGHEDPWLAPGDPTPIQTHMIFSNEPGVYRPGIDGYRTINTMIVTEDGVDIPSRFQANTPIDARVIAL, MRITIAGKIGSGKSTVSSELSRITGYTVYSSGTFFRETARKMNMSIEDFNVYSESHPEADYYTDETQKAFMQANDNIIVEGRLAGWISYLNGINAFRIFLYATYYTRLVRFAGRENIDIDSARDLMEKREKSEKERYRKLYGIDVDDLSIYDIVVNTEFMKPPEIAVYIANRIDEMSRKDIFTPRILR, MGSDKIHHHHHHMRIALDPYMYRHLSLGAMVDKTAELGYDYIELSPREDFMPFYKYPRVDRARIREFRKALSDAGVKLSSLLPLYHWAAPDEDLRIAAVRNWKRAIEVAVEMDCDLMNTEFSGQSDHALVCENQFMKSMDELMPHFEREGIKLDIQAHPYDFCERNNESVDIIRGLDRDWINYLYAAPHTFFYDDGVGDIASMLRYAGDRLTHLIIADTYNHRASSNLRYIVNPPGVTATVHQHLDIGQGEVNWEAFFSTLRDIKFDGIATVAVFAWEERADESSRFMLERVKSELLR, MTTYTTNDFSEIVFGRKSVRVYDETHKISHEEMLTMIQEATTAPSSVNMQPWRFVVVESEAGKEKLKPLIRFNTRQNETSSAMLLIFGDLNCHERGEEIYNQAYASGKMPKEVRDQQLAAIIPHYESLSREQMNDIVKIDASLAAMQFMLVARAHGYETNPIGGFEAEKLAETFGLDQERYVPVMILSVGKGMETGYESVRLAPEKITTFE, MEVLLTETFYTIGRSPRADIRIKSQFVSRIHAVLVRKSSDDVQAAYRIIDGDEDGQSSVNGLMINGKKVQEHIIQTGDEIVMGPQVSVRYEYRRRDQFGTMLEHHHHHH, MGSDKIHHHHHHMTTLPYFQPAASPASAGEGSASLSPVIALKDLVARLDREQRKAQELLASLGFALRSFTNLGQFLELIPLIASRVTDTEGSLLLTFRPDGRFWQAQLHCTDPRLAETLNRIPASLPVGTAPSGSPTEAIAEIDRQVQRCLGRNAQLFATAVLVRNQARGRLYVFSLDGQYSWNESRQKLVRLVADQTAVAIENDALTTELRQKERLDRELEIGAEIQLQLLPSQCPAIEGLEIAAACRTASRVGGDYYDFIPTRTHSDEQGRLQPDAGSPWAIAIGDIMGKGVPAGLIMTMLRGMLRAEVLNRHRPSRVLAHLNQVIYADLEHSNRFATLFYSEYDPSSRLLTFSNAAHNPPLLWQQATGTLKRLDTFGMMIGLEADNAYAEQHVQLQPGDVVLYYTDGLTDAADPRGNRFDEENVAIAFREACRRRLSAEALLADLFNRVQRFIGPDRHNEDDMTLVVLRAV
